Results: the supplement of paper PMC9170038

Tested on: MS2 coat protein
Assay: apparent KD of MS2 coat protein; designed switch direction (-1 OFF switch, 1 ON switch): -1; higher = weaker reporter binding
In short: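 Stalled E. coli RNA polymerase transcribed designed RNA switches on Illumina chips, which were then titrated with SNAP-549-labelled MS2 coat protein, doubling from 0.7 or 1.5 nM to 3 µM. Steps lasted from 0.8–1.5 h at the lowest concentration to 10–20 min at the highest. The apparent KD is each design's median over clusters of curve-fitted normalised fluorescence.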

[1] = input ligand: microRNA oligo, concentration not stated
[2] = Eterna round: R95, input ligand: FMN 200 uM
[3] = Eterna round: R95, input ligand: microRNA oligo, concentration not stated
[4] = Eterna round: R95, input ligand: none

Row | Sequence | apparent KD of MS2 coat protein (input ligand: FMN 200 uM) | apparent KD of MS2 coat protein [1] | apparent KD of MS2 coat protein (input ligand: none) | apparent KD of MS2 coat protein [2] | apparent KD of MS2 coat protein [3] | apparent KD of MS2 coat protein [4]
1 | GUGUUUGGUGUAGGAUAUGUUUGUGGGUCGCGGGCAGAAGGACAUGAGGAUCACCCAUGUUUCGGGCUUGGCUUGGGCGGGCGC [-21, -19 kcal and 14% A] (Eterna round: R96, puzzle: Exclusion NG 1) | 16.7 nM | 12.4 nM | 17.6 nM |  |  | 
2 | GUUAAACAUGAGGAUCACCCAUGUAAGGAUAUGCUGAGGUCGCGCUGACGUGACUGAAGCAGAAGGUACAAAUG [Mat - Mod of JL D62] (puzzle: Exclusion 1) |  |  |  | 85.4 nM | 48.7 nM | 73.9 nM
3 | GUUAACGAUGAGGAUAUAUGAUAUCAAAGCAUCAUAGAAGGCAUCACAUGAGGAUCACCCAUGUGAUCUUCUUU [jl-ex6-4.10 ViennaUCT mod] (Eterna round: R97, puzzle: Exclusion 6) | 83.6 nM |  | 15.2 nM |  |  | 
4 | GUUAACGUAGGAUAUUAGUACAUGAACAUGAGGAUCACCCAUGUGAGGUAGGUCUAAGAAUAAGAAGGGCGAAGAA [EX5 #27] (Eterna round: R97, puzzle: Exclusion 5) | 108 nM |  | 185 nM |  |  | 
5 | GUUAACGUAGGAUAUUAGUACAUGAACAUGAGGAUCACCCAUGUGAGGUGGGUCUUAGAUUAAGAAGGGCGAAGAA [EX5 #30] (Eterna round: R97, puzzle: Exclusion 5) | 525 nM |  | 867 nM |  |  | 
6 | GUUAAGUGAGGAUAUGGUGAGUAGUGCCUGAGCGCUGCUCACCAGAAGGCACAUGAGGAUCACCCAUGUAUAAC [Mat - Exclusion 4 - Mod of JL - D16] (puzzle: Exclusion 4) |  |  |  |  | 19.9 nM | 
7 | GUUACUAUUGUGAGGAUAUACUUAUUAAUAAAUAGGUAGAAGGCACAUGAGGAUCACCCAUGUUUUAACUUUUC [lam1] (Eterna round: R97, puzzle: Brourd's mod of Exclusion 4) | 96.8 nM |  | 24.9 nM |  |  | 
8 | GUUAGACAUGAGGAUCACCCAUGUGAGGAUAUGAUGCGAAUAAAGAAUGAAGUAAGCAUCAGAAGGCACAUAUG [Mat - Mod of Hyphema D30] (puzzle: Exclusion 1) |  |  |  |  | 235 nM | 
9 | GUUAGUAUCUAGGAUAUCUAGUACAUAGUAUCUAGAGAAGGAGAUACAUGAGGAUCACCCAUGUUCUGUGAUCU [Exclusion 6 - 2:c] (puzzle: Exclusion 6) |  |  |  | 53 nM | 205 nM | 234 nM
10 | GUUAUCGGAGGAUAUACAUGAGGAUCACCCAUGUGCCAGUAUGUACUAAUCCUUUAGAGUAGAAGGUCGAUAGG [Eternabot (L1) Solution 72] (Eterna round: R97, puzzle: Exclusion 3) | 198 nM |  | 118 nM |  |  | 
11 | GUUAUGCGGCAGGAUAUCCAUCCGCGGUAUGAUGGAGAAGGGCCGACAUGAGGAUCACCCAUGUGCGUCCUAGG [jl-ex6-4.49 ViennaUCT mod] (Eterna round: R97, puzzle: Exclusion 6) | 155 nM |  | 53 nM |  |  | 
12 | GUUCCACAUGAGGAUCACCCAUGUGAGGAUAUGGUUUCGCUGGCCGUAGCCAGUGGAACCAGAAGGCGCGUGAU [Mat - Exclusion 1 - JL Mod - D19] (Eterna round: R97, puzzle: Exclusion 1) | 80.8 nM |  | 67.3 nM |  |  | 
13 | GUUCUGACAGGAUAUACAUGAGGAUCACCCAUGUGCCCUUGGAGAUGCAAAGCAUCUCGUAGAAGGGUCUGAAC [Omei Ex3 Model Bachelor's Dilema v29] (Eterna round: R97, puzzle: Exclusion 3) | 34 nM |  | 37.2 nM |  |  | 
14 | GUUGGGUGAUGAUACAUGAGGAUCACCCAUGUUAAAAGUCAUUAGGAUAUCCCGACGGCCGGUUAGGAGAAGGAGUGACCAGGC [Maonma] (Eterna round: R96, puzzle: Exclusion NG 3) | 636 nM | 285 nM | 429 nM |  |  | 
15 | GUUGUGCGAGGAUAUAUGUGAGGUUUGCCUCAACAGGUAAUACAUGAGGAUCACCCAUGUAGAAGGCGCAUGAG [S1-(23.6);S2-(22.1) [87C]] (Eterna round: R96, puzzle: Exclusion 2) | 248 nM | 45 nM | 63.9 nM |  |  | 
16 | GUUGUUUAUGUAGGAUAUGCCUGGCGUGCCUUUGCAGAAGGACAUGAGGAUCACCCAUGUAACAUGAGGCUCACCCAUGUCGCA [salish99_ExNG1_r04_109] (Eterna round: R96, puzzle: Exclusion NG 1) | 758 nM | 244 nM | 599 nM |  |  | 
17 | GUUGUUUAUGUAGGAUAUGCCUGGCGUGCCUUUGCAGAAGGACAUGAGGAUCACCCAUGUAUUGCGGUCUGCGUUCAGAUCGCG [salish99_ExNG1_r4_040] (Eterna round: R96, puzzle: Exclusion NG 1) | 58.3 nM | 27.8 nM | 30 nM |  |  | 

Row | Sequence | apparent KD of MS2 coat protein (input ligand: FMN 200 uM) | apparent KD of MS2 coat protein [1] | apparent KD of MS2 coat protein (input ligand: none) | apparent KD of MS2 coat protein [2] | apparent KD of MS2 coat protein [3] | apparent KD of MS2 coat protein [4]
18 | GUUUACAAGCUAAGAUCCUACAUGAGGAUCACCCAUGUGGUCCGGUGACGUGAGUCACCGGACUUAGCUCGUCUUGU [salish99_S_TOV1_R5_001] (Eterna round: R97, puzzle: Sensor, turn-off variant 1) | 86.8 nM |  | 90.4 nM |  |  | 
19 | GUUUAGUGAGGAUAUGUGGCUUCGAUCGUGCGAGGGAGGCUACAGAAGGCACAUGAGGAUCACCCAUGUUCCUC [salish99_ex4_r4_303] (Eterna round: R97, puzzle: Exclusion 4) | 655 nM |  | 42.5 nM |  |  | 
20 | GUUUCACAUGAGGAUCACCCAUGUGAGGAUAUGGAUUCGAUAGAAGUAGAAGAUGGAUCCAGAAGGCGCGUGAC [JR_Ex1_Sub078] (Eterna round: R97, puzzle: Exclusion 1) | 35.3 nM |  | 36.4 nM |  |  | 
21 | GUUUUCAGACGGAGAUCCUACAUGAGGAUCACCCAUGUCUCACAAGCUUUUUGCUCGUCUUAUACUCCUCUGUUCUC [Elimod 42 - Jieux - Sensor, turn-off variant 1] (Eterna round: R97, puzzle: Sensor, turn-off variant 1) | 83.5 nM |  | 106 nM |  |  | 
22 | GUUUUCAGACGGAGAUCCUACAUGAGGAUCACCCAUGUCUCUCUUGCUAAUUGCUCGUCUUUUUCUCCUCUGUUCUC [Elimod 36 - Jieux - Sensor, turn-off variant 1] (Eterna round: R97, puzzle: Sensor, turn-off variant 1) | 81.2 nM |  | 95.8 nM |  |  | 
23 | GUUUUGAGACGGAGAUCCGACAUGAGGAUCACCCAUGUCUCGCAAGCUUUUUGCUCGUCUUAUACUCCUCUGUUCUC [Elimod 45 - Jieux - Sensor, turn-off variant 1] (Eterna round: R97, puzzle: Sensor, turn-off variant 1) | 17.8 nM |  | 17.1 nM |  |  | 
24 | GUUUUGAUAGGAUAUACAUGAGGAUCACCCAUGUCCCACCCGUUACCUCUGACCCUAUGUAGAAGGAUCGUUUA [Exy#15] (Eterna round: R97, puzzle: Exclusion 3) | 27.5 nM |  | 37.2 nM |  |  | 
25 | UAAAAGAUGGACGAACCACAUGAGGAUCACCCAUGUCGAGGUUAGGAUAUGUCGUCCAUGGGACCACAGAAGGGACUGAAGACU [Teraqu] (Eterna round: R96, puzzle: Exclusion NG 3) | 16 nM | 11.3 nM | 20.2 nM |  |  | 
26 | UAAAAGCGAGGAUAUACAUGAGGAUCACCCAUGUGGGCAAAGUUCGCUAAGGUACCUAGUAGAAGGCGCGAAAU [Digeanin] (Eterna round: R97, puzzle: Exclusion 3) | 450 nM |  | 63.3 nM |  |  | 
27 | UAAAAGGAAGGAUAUACACUUCAAAACCUCAUGUGACUUUCACAUGAGGAUCACCCAUGUAGAAGGUCCAAGGC [Letior] (puzzle: Exclusion 2) |  |  |  |  | 21.5 nM | 
28 | UAAAAGUCAGGAUAUGCGAGAGAUUGAAGUGUGGCAAGGUAGCAGAAGGGACAUGAGGAUCACCCAUGUGUGGC [JR_Exclu4_Sub096] (puzzle: Exclusion 4) |  |  |  |  | 49 nM | 
29 | UAAAAGUUAGGAUAUACAUGAGGAUCACCCAUGUCGCGGAACCGCGGCGAUUACUCCUGUAGAAGGAACAUCGU [Ribeat] (puzzle: Exclusion 3) |  |  |  |  | 125 nM | 
30 | UAAAAUAGUGUGAGGAUAUGCUGGUCCUUGGAUCAGCAGAAGGCACAUGAGGAUCACCCAUGUAAAUAAUAAUA [Mat - Exclusion 4 - JL Mod - D27] (puzzle: Brourd's mod of Exclusion 4) |  |  |  | 184 nM | 54.6 nM | 67.1 nM
31 | UAAAGACAUGAGGAUCACCCAUGUAAGGAUAUCGCCUGCGGUGGCGCCAGCCAUUAGGCGAGAAGGUGCGGUGA [Eternabot (L1) Solution 14] (Eterna round: R97, puzzle: Exclusion 1) | 326 nM |  | 417 nM |  |  | 
32 | UAAAGUAUAUAGGAUAUCUAGCUGGUAACAGCUAGAGAAGGAUGUACAUGAGGAUCACCCAUGUAAAUCAGUGA [Ex6/14-A2] (Eterna round: R97, puzzle: Exclusion 6) | 23.3 nM |  | 17.9 nM |  |  | 
33 | UAAAUAAAUGUAGGAUAUCUGCACGUUUAGUGCAGAGAAGGACAUGAGGAUCACCCAUGUAUAGUAGCUUCGGCUACAAAUAAU [ENG1-C2] (Eterna round: R96, puzzle: Exclusion NG 1) | 115 nM | 42.2 nM | 76.3 nM |  |  | 
34 | UAAAUAAGUGUGAGGAUAUGCUGGUCCUUGGAUCAGCAGAAGGCACAUGAGGAUCACCCAUGUAAUAUAUUUAU [Mat - Exclusion 4 - JL Mod - D61] (puzzle: Brourd's mod of Exclusion 4) |  |  |  |  | 68.1 nM | 
